Our source for the Kd values is PMC5626683.

This assay addresses GST-MreC from Helicobacter pylori (residues L37-N248), wild type (H. pylori) (UniProt B5Z916). Kind of assay: ITC; iTC200, 20 °C; PBP2 (3 μL of 160.4 μM) titrated into the cell with GST-tagged MreC (25 μM). In general terms: In ITC the heat of successive injections is recorded.

The Kd is the concentration at which binding is half-saturated. In the case of “PBP2 from Helicobacter pylori (residues L38-L588, lacking the TM helix), His6-tagged (domain or fragment)”, the Kd worked out at 400 nM. This lies in the sub-micromolar range.
